Laboratory results taken from article PMC10708208 (Science Advances, 2023).
Where two headings read alike, the source gives them in different places.

Assays:
[1] = biological target: T1, F-actin (cryo-EM samples) ( (chicken and rabbit muscle …, UniProt P68139 1-377)); assay: cryo-EM structure
[2] = biological target: T1, F-actin (cryo-EM samples); assay: cryo-EM structure; remark: listed apart in the source

Binder | stoichiometry N [1] | stoichiometry N [2]
SipA^β (SipA_(426–685)) (domain or fragment) GETTSFDEVDGVTSKSIIGKPVQATVHGVDDNKQQSQTAEIVNVKPLASQLAGVENVKTDTLQSDTTVITGNKAGTTDNDNSQTDKTGPFSGLKFKQNSFLSTVPSVTNMHSMHFDARETFLGVIRKALEPDTSTPFPVRRAFDGLRAEILPNDTIKSAALKAQCSDIDKHPELKAKMETLKEVITHHPQKEKLAEIALQFAREAGLTRLKGETDYVLSNVLDGLIGDGSWRAGPAYESYLNKPGVDRVITTVDGLHMQR | 0.5 SipA per actin subunit (molar ratio) | –
SipA^α (SipA_(497–669)) (domain or fragment) NKAGTTDNDNSQTDKTGPFSGLKFKQNSFLSTVPSVTNMHSMHFDARETFLGVIRKALEPDTSTPFPVRRAFDGLRAEILPNDTIKSAALKAQCSDIDKHPELKAKMETLKEVITHHPQKEKLAEIALQFAREAGLTRLKGETDYVLSNVLDGLIGDGSWRAGPAYESYLNKP | – | 0.5 SipA per actin subunit (molar ratio)
